Measurements as given in patent publication US20100041596A1.

What was measured:
Details in all cases: remark: other sources report otherwise
[1] = biological target: T1, p60 TNFR, full-length (Homo sapiens (Human)), P19438; assay: DTSSP crosslinking of H9 cells with or without TNFα, non-reducing gel, anti-p60 blot
T1 chain: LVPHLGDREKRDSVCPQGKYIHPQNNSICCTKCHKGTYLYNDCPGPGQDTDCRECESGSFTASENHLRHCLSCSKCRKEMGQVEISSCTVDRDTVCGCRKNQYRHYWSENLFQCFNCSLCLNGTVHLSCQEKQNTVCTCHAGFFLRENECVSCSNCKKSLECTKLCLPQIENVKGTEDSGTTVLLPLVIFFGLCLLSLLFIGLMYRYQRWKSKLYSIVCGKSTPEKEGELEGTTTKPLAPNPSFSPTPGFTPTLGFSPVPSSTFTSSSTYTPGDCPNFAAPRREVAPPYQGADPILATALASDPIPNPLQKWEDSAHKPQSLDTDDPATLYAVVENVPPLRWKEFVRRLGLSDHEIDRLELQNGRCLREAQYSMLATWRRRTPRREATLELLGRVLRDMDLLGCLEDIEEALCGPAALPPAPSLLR

[2] = biological target: T2, Fas fusion proteins with the death domain (CFP and YFP) (Homo sapiens (Human)), P25445; assay: CFP dequenching after YFP photobleaching, microscope
T2 chain: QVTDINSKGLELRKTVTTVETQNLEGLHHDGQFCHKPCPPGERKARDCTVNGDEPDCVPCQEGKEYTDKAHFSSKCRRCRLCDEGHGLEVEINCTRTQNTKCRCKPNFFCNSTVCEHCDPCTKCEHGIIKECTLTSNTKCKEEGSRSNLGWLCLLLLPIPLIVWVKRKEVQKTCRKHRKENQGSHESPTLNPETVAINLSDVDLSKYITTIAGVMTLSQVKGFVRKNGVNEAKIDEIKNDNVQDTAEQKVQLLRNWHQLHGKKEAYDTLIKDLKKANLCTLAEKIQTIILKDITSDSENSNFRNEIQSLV

[3] = biological target: T3, native Fas receptor of H9 lymphoma cells (Homo sapiens (Human)), P25445; assay: DTSSP crosslinking of H9 cells, deglycosylated lysates, anti-Fas blot
T3 chain: T2 chain

B1: p60 TNFR, full-length, P19438 30-455 (receptor)
chain: T1 chain
- percent of chains cross-linked as apparent trimers and higher order complexes [1]: 15 to 20%

B2: Fas fusion proteins with the death domain (CFP and YFP), P25445 26-335 (receptor, not shown: large carriers)
chain: T2 chain
- FRET efficiency (E%) [2]: 27%

B3: native Fas receptor of H9 lymphoma cells, P25445 26-335 (receptor)
chain: T2 chain
- percent of chains cross-linked as trimers (densitometry) [3]: 60%
